This test addresses T1, UmpH (ribonucleotide monophosphatase), untagged recombinant (E. coli, UniProt P0AF24 1-250).
T1 construct: UmpH (NagD), ribonucleotide monophosphatase of E. coli; also called NagD; untagged UmpH; source: E. coli BL21 (λDE3), pET29a, purified (ammonium sulfate, gel filtration)
T1 sequence (looked up): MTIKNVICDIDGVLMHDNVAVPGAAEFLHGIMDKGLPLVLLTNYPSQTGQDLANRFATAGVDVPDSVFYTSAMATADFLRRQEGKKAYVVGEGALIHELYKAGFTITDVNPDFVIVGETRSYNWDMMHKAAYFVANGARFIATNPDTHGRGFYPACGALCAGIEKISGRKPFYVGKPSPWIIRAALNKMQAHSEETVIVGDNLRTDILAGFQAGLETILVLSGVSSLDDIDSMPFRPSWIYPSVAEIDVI
In words: pull-down; His-PII on Ni2+ magnetic beads, untagged UmpH; 50 mM Tris-HCl pH 8.0, 0.1 M NaCl, 5 mM MgCl2, 10% glycerol, 20 mM imidazole; room temperature; without nucleotides or with ATP or ADP (effectors as indicated); SDS-PAGE, Coomassie. Conditions: both partners purified.

B1: His-GlnB from Azospirillum brasilense (natural protein, UniProt P21193 1-112, looked up)
chain: MKKIEAIIKPFKLDEVKEALHEVGIKGITVTEAKGFGRQKGHTELYRGAEYVVDFLPKVKIEVVMEDSLVERAIEAIQQAAHTGRIGDGKIFVTPVEEVVRIRTGEKGGDAI
notes: GlnB, PII protein of Azospirillum brasilense; also called GlnBAb; His-AbPII; not shown: His tag, N-terminal, kept
In the case of B1, the binding result was “binds”.

The values are drawn from publication PMC11617674, “The activity of the ribonucleotide monophosphatase UmpH is controlled by interaction with the GlnK signaling protein in Escherichia coli” (The Journal of Biological Chemistry, 2024).
